Residue numbers refer to the chain shown, from its start.
How the values were obtained:
[1] = target: proprotein convertase subtilisin/kexin type 9 (PCSK9) (human) (UniProt Q8NBP7); assay: DELFIA immunoassay (PerkinElmer Cat. #1244-330) on PCSK9
[2] = target: proprotein convertase subtilisin/kexin type 9 (PCSK9) (human) (UniProt Q8NBP7); assay: DELFIA immunoassay (PerkinElmer Cat. #1244-330), full-length IgG on PCSK9
[3] = target: proprotein convertase subtilisin/kexin type 9 (PCSK9) (human) (UniProt Q8NBP7); assay: PCSK9 biochemical disruption assay (BPS Biosciences Cat. #72010); antibody disrupts PCSK9 binding to LDL-R
[4] = target: proprotein convertase subtilisin/kexin type 9 (PCSK9) (human) (UniProt Q8NBP7); assay: PCSK9 biochemical disruption assay (BPS Biosciences Cat. #72010); antibody disrupts PCSK9 binding to LDL-R; positive signal but IC50 not reached at the concentrations tested

Sequence of UniProt Q8NBP7 (Q8NBP7 other isoform, or with tags, fused parts or gaps limits assumed): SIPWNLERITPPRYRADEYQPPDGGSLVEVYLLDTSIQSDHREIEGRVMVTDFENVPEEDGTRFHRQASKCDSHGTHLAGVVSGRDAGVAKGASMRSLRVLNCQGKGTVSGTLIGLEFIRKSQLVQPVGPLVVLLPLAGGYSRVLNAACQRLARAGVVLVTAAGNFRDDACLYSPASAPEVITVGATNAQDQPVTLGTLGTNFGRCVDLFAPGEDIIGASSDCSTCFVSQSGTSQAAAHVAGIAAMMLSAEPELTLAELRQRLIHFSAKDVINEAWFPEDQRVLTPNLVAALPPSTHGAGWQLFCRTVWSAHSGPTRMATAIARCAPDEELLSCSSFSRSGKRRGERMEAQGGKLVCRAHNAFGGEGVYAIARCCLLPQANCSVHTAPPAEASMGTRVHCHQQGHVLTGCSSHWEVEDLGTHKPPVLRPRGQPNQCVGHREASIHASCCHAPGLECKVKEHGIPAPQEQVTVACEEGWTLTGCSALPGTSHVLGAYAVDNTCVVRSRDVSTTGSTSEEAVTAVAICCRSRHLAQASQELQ

With Control (antibody) the Relative Binding to PCSK9 Measured by DELIFA Immunoassay [1] was 5.2.

B1: Reference Antibody (antibody, V domains shown)
VH: QVQLVQSGAEVKKPGASVKVSCKASGYTFTSYYMHWVRQAPGQGLEWMGEISPFGGRTNYNEKFKSRVTMTRDTSTSTVYMELSSLRSEDTAVYYCARERPLYASDLWGQGTTVTVSS
VL: DIQMTQSPSSLSASVGDRVTITCRASQGISSALAWYQQKPGKAPKLLIYSASYRYTGVPSRFSGSGSGTDFTFTISSLQPEDIATYYCQQRYSLWRTFGQGTKLEIK
Molecule B1 has a Relative Binding to PCSK9 Measured by DELIFA Immunoassay [2] of 6.6 and an IC50 [3] of 20 nM.

B2: AB-2 (antibody, V domains shown)
VH: B1 VH with E50W, S52E, S105M, L107V
VL: B1 VL with S31G, W95S
Molecule B2 has a Relative Binding to PCSK9 Measured by DELIFA Immunoassay [2] of 3.1 and an IC50 [3] of 17.2 nM.

B3: AB-5 (antibody, V domains shown)
VH: B1 VH with Y33W, F54S, R57S, S105M, L107V
VL: B1 VL
B3 was tested, and the Relative Binding to PCSK9 Measured by DELIFA Immunoassay [2] was 4.3 and the IC50 [3] was 18.9 nM.

B4: AB-11 (antibody, V domains shown)
VH: B1 VH with T28S, S52D, P53L, F54S, R57S, E62Q, K65Q, S105F, L107V
VL: B1 VL
Work on B4 yielded a Relative Binding to PCSK9 Measured by DELIFA Immunoassay [2] of 2.4 and an IC50 [3] of 20.8 nM.

B5: AB-6 (antibody, V domains shown)
VH: B1 VH with R57T, A104S, L107V
VL: B1 VL with R54L, T56S, R96Y
Work on B5 yielded a Relative Binding to PCSK9 Measured by DELIFA Immunoassay [2] of 1.8 and an IC50 [3] of 16.5 nM.

B6: AB-7 (antibody, V domains shown)
VH: B1 VH with S52F, F54S, L102F
VL: B1 VL with Y53N, R54L
Work on B6 yielded a Relative Binding to PCSK9 Measured by DELIFA Immunoassay [2] of 2 and an IC50 [3] of 18.1 nM.

B7: AB-3 (antibody, V domains shown)
VH: B1 VH with Y33W, S52D, F54S, R57S, E62Q, K65Q, L107V
VL: B1 VL
B7 gave a Relative Binding to PCSK9 Measured by DELIFA Immunoassay [2] of 2.8 and an IC50 [3] of 16.1 nM.

B8: AB-1 (antibody, V domains shown)
VH: B1 VH with S52L, F54G, R57T, E62Q, R100S, L107I
VL: B1 VL with S31T, R54L
Molecule B8 has a Relative Binding to PCSK9 Measured by DELIFA Immunoassay [2] of 1.8 and an IC50 [3] of 18.4 nM.

B9: AB-9 (antibody, V domains shown)
VH: B1 VH with S52K, F54S, R57T, T58S, E99D, A104Y, L107V
VL: B1 VL with S31G, A32S, R91Y, L94N, W95Y, R96W
In the case of B9, the Relative Binding to PCSK9 Measured by DELIFA Immunoassay [2] is reported as 3.9 and the IC50 [4] is reported as greater than 53 nM.

B10: AB-10 (antibody, V domains shown)
VH: B1 VH with S52L, F54S, S105M, L107V
VL: B1 VL with L94V, W95A, R96L
For B10, the Relative Binding to PCSK9 Measured by DELIFA Immunoassay [2] was 4.3 and the IC50 [3] was 20.1 nM.

B11: AB-8 (antibody, V domains shown)
VH: B1 VH with S52L, F54S, S105M, L107I
VL: B1 VL with L94T
For B11, the Relative Binding to PCSK9 Measured by DELIFA Immunoassay [2] was 2.9 and the IC50 [3] was 18.4 nM.

B12: AB-4 (antibody, V domains shown)
VH: B1 VH with S52R, F54S, R57S, E99D, A104S, S105M, L107V
VL: B1 VL with R91H, L94S, W95S, R96W
Work on B12 yielded a Relative Binding to PCSK9 Measured by DELIFA Immunoassay [2] of 2.9 and an IC50 [4] greater than 53 nM.

Source: US20250368753A1
